According to paper PMC4841919 (Neurobiology of aging, 2016):
Blank lines part the entries; values can stand above or below the molecule they belong to.

Experiments:
[1] = target: striatal-enriched tyrosine phosphatase STEP61 (endogenous, rat brain) (rat (endogenous in Sprague-Dawley rat brain)); assay: non-reducing SDS-PAGE and immunoblot
[2] = target: the molecule itself; assay: non-reducing SDS-PAGE and immunoblot

- dimer band after N-acetyl cysteine, percent of untreated aged control, cortex [1]: 59.4 % of control
- fold increase of the dimer band in aged rats, cortex [1]: 6.2 fold
- fold increase of the dimer band in aged rats, hippocampus [1]: 5.9 fold
- stoichiometry N [1]: 2
Molecule: striatal-enriched tyrosine phosphatase STEP61 (endogenous, rat brain) (enzyme)

B1: V5- and myc-tagged STEP61 (wild type) (enzyme, UniProt P54830-1 1-541, looked up)
chain: MCCSERLLGLPQPVEMEAPDEAEGLPSKQKEMPPPPPPSPPSEPAQKLPPQGAGSHSLTVRSSLCLFAASQFLLACGVLWLSGHGHSWLQNTTDLISSSLTVLNHLGPVAWLGSGTWGIPSLLLVSLTVSLVIVTTLVWHLLKAPPEPPAPLPPEDRRQSVSRQPSFTYSEWMEEKVEDDFLDLDAVPETPVFDCVMDIKPETDPASLTVKSMGLQERRGSNVSLTLDMCTPGCNEEGFGYLVSPREESAHEYLLSASRVLRAEELHEKALDPFLLQAEFFEIPMNFVDPKEYDIPGLVRKNRYKTILPNPHSRVRLTSPDPEDPLSSYINANYIRGYSGEEKVYIATQGPIVSTVADFWRMVWQERTPIIVMITNIEEMNEKCTEYWPEEQVVHDGVEITVQKVIHTEDYRLRLISLRRGTEERSLKHYWFTSWPDQKTPDRAPPLLHLVREVEEAAQQEGPHCSPIIVHCSAGIGRTGCFIATSICCQQLRREGVVDILKTTCQLRQDRGGMIQTCEQYQFVHHAMSLYEKQLSLQSSE
- stoichiometry N [2]: ≥ 2
